Assay: soluble fraction after stress (log2 fold change); higher = more stays soluble; pooled small domains, quantitative proteomics
Details: stress: 75 degC
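Further: 20 min heating vs room temperature control held 20 min.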

Sequence	soluble fraction (log2)
HMLLTLPEDIITMVRQGTLSAGHARVLAGLESDEMKMTLARQTITNEWSVRQLENAVALMRKS	-0.906
HMLLTPLEETRLVIEEIVIPQKLTIDLLPRSSAIRKLQHELITHYQLRGTSVGNEPNRRLRIYP	-0.121
HMLMNADVLVKYQEDHWIVISEKASQASDTFDKKEQAVERAKEIAKNKNSSVKVYKQDGTLQDTFDYS	0.351
HMLMSDEENAEFTKLYRQLVFKLHPDLNPNQTKDEENLWHKVQMAYKGGDLEEMRSLAIILDAQ	0.0885
HMLMTGSLQTKHGKYYVVVRIPDGLGNTKAKWINTGIPTDGNNKRKAQQRRIEILTELEENKD	-2.47
HMLMYAQDEKEEASNNIPYRLLHMSFTKEQKAELQRAMDVRVPKDIILSYFYPDTPVARMMEIRRQYESA	-0.814
HMLNDKLQTLFSLFPAVDKDLKKKGVTRQILWEQYKRNHPDGVGRSQFNYYYAQWKDQVNPT	-1.02
HMLNDMYAVMEIRGQGGELIAKLINQDGSPFYVKKGTTLQSGHVIDEITTTYVRAEKAGAKDYLYF	-0.939
HMLNDTGAIRAAVEEVLAANEKSVNEYKGGKTQAFQYLIGQSMRALRGKAPAQEVTKLLKELLG	-0.564
HMLNQIGVSQKEFDQIHTAIKIALKTSSLTPTGITEKLPKFPPEKTADILRWMADNKEVLLNSEEKYELKT	-0.297
HMLPAGAAAPLEDGSAPEGYTVKGNADSGLYHEPDGRWYDATVAEFWFKTAADAEAAGFRKAGS	0.149
HMLPDGEAFVKVNTSLNIRTGPWGQIVGWFHNNDKVKIIGRDGDWYKISHNGQTRYIHSRYVSSSR	-1.2
HMLPDHAPITMRQLAMLHVAKNKLDLTDEDYRSLLLLYGGVESSKQLNQEGLRRVLDRFKELGFEP	-0.45
HMLPDLLNGRVIPSPEKVIRARLNRGVWELLVQWVGRAPSDATWENLLEFKSAYPSVQLEDALF	-1.97
HMLPDLQKAIDTFLYEVDSRINTSFEELIDKLNSKEEAVAFFLALLEAVRWGFIKAEQESNSINIKK	-0.898
HMLPDSQLMKEATAWFMRQAADDFSGAERRRLDAWRAQSPAHARAYHQVQALWNAPELQQAAAR	-0.113
HMLPEGIENGDVLTRTDALDYRKWLVTGNQKRIFASTASFYGENFNYSEVKAVSDRVLDAIPDGEPV	-0.0413
HMLPFGHTRLEDGTIQEIPEQIALARKVAEMYKAGFPVMQISIKTEGLLTPRQIYGLMNHWGVKR	-1.3
HMLPIKLDLEIGENVRVVSGPLENFVGSVVSFDTDQQKVKLVVEMFGRKTPVELDFIEVQKLR	-2.24
HMLPIMDRLITAGISINTAKKWVDKFGDKRIKQNLAYSLAKQKEGKVKTNFVGYLAKAIEEDWGSGWE	-1.5
HMLPKAERREQLMAVARSVFAEQGYHTTSMEIIAETAGVSKPLLYQHFPSKLDLYLALLDAGID	-1.8
HMLPKILVMDGKVNKNALTTLGKDEEWVKKVLRNHNIHSIKDVLLALYDTKGKFQYQLYDDYEK	-0.248
HMLPKNITNTIDHWIQKFPQGKQRSAIIAALHAVQHHNKGFLTNDLLNQVADYIDVPKMNVYEVATFYSM	0.169
HMLPLIEVPAVTGKYLTKAKSALKDAGLDTGDIKRVEHEEHGENYVLKQDPPAGTKVPFGTTVSLTVVAP	0.427
HMLPLLEYLDPFTGKKTYTYLNPDTQHPIFTYYSYQDDKTGRTAYSYIDPLTGKAVNSDEPPMDILYD	-0.676

Sequence	soluble fraction (log2)
HMLPPHMEVRAIMILDKRPMALMNIEGEGDGLIVSPGYRFGDGRGRVVSITQTKVVVLWAGTSMEL	-2.82
HMLPQYELIKQYLRHQIETGEWPIGYRTPSEPKLAEQFSVSRMTARRALQELADQGLLSRTAGSGTFVAKP	-0.921
HMLPVQGEEVAPGLYKFDFPFLADKRVWEKTINAFKAEHPELKVNYIYTGPDELNSKKKTHVLVYVFTES	-0.539
HMLPVYSITEAAERLDIPASTIKWYADRFASYISPSKGKGRKRFTPEDLATLQKIHELSQDHTTEEAEAML	-0.0974
HMLPYKGTVAVSLAVLHKAVGVGTADMLKAVGTLRQGTEVTVTGRNGPFAQLKNGLWMKESFLE	-1.07
HMLQADALADPVGWALRTLGFDLEAGTPERSAIQRSFRQSLIEAHPDHGGADDEAAQRIADITEARRILLA	-0.403
HMLQFTYPRLHTKKSWYVDFMSFDPGAGKMRRKKFMLDGIPKITDRRKRAAELIEVLTKQLRAGWSPWVNV	-3.85
HMLQIADEYLDRLQALFEDVRDNHFAIGDLLVELVDMHDSRRVDVINYIAGRLAISPTTLYDYENTARR	-1.15
HMLQLDATDRALIVATQGGLPLVPRPYQVVGEQLGISGEEVVARLRALLDAGVIRRIGAVPN	-0.569
HMLQLKEPLKKVYERLTPVPKTAETILAELWEKGEYLDIAALHRALMELELSGYVRQSSPGYFGTSA	-0.553
HMLQQKESAALGERLLNQALATLKVEPDAISWDRWEALAKEYGAKSQLDILADIGLGKRLSFVVAQALTKV	-1.25
HMLRDMIIQSYRYYTDKERNPRQVWNRMEADAFWEIIRDYEGYNGDGYVHTKIIPEMEALTVIEMDN	-1.83
HMLRISLAAARVNAEMTQEDVAREMHVSKNTVVNWEKGKSEPTISQSRELSKLYNMPLEYIFYL	-2.68
HMLRKTTDLDAIRSVAKDVIDQNPKAVEDYVGGKESAIGFLLGQVMRATKGTADANTVRELLKEILDS	1.01
HMLRPMVAILNKNISKGQVISEDYIKFEVRPERQIHGAYHDISEVLGRKTKNNIAAGTILKVRHLDT	-0.69
HMLRQVSDSNALETAVKKVLDANPEEVERYKSGNKKLISFFVGQTMKATKGAGNPKEINSILAKLL	-0.326
HMLSAEAAAARTAISTLSEDQQRVLGLSIQRGLVHEQIARATGLPLGTVKTHIRRGLIKVREALEAQAAG	0.00212
HMLSAGETYTLGYLKASDGILFTAADGSEQTVMQRVQVRLYDNGDGTYTARLADDIAYSAVVTEDMIDK	0.27
HMLSDAAAMESIAYEAIRQMEPDTYYIIGAGTTTRGIMEVLGLKNTLIGVDLIRNKELVANDLGGKELLSY	0.0782
HMLSDEDMMELAIIENLQRENLNPIEEARAYESLIDKGFTHTEIADKMGKSRPYISNSIRLLSL	0.355
HMLSDFHLNHDSIVNHTVQKKETIFSLSKKYGLSINEIIKANPGIQIDKLKRRSILIIPLRKK	-1.81
HMLSDLTPGDLVVHATHGIGRFLGIRKLELEGMTKDYITIQYRGNENLYVPVTQMDLVSRYI	-1
HMLSGGEVKRIEIATILARKSGLMIFDEPEAGIDLWSFARLVETFEDIRSNTSGSLVIISHQ	0.0709
HMLSKEERRSQLLDLGVRLLSTRSLDELSIDLLAEEAGISRGLLYHYFGNKHDFHEAVVRRAADDLI	-2.15
HMLSLKAQVYEIIRQKILQQEYALGEKINIDTVADELKISNSPIREALMMLSQDGLIEMVPNNGARVI	-1.88

Source: the domain aggregation screens of Martell et al. (2025)
